According to patent JP2023014062A (dated 2023):

How the values were obtained:
[1] = molecular target: T1, SARS-CoV-2(従来株(武漢株))のSタンパク質のRBDタンパク質 (SARS-CoV-2(従来株(武漢株)), UniProt P0DTC2 322-536); assay: X-ray crystal structure of the RBD-Fab complex
T1 construct: range 322-536

[2] = molecular target: T1, SARS-CoV-2(従来株(武漢株))のSタンパク質のRBDタンパク質; assay: ELISA, RBD coated at 2 μg/ml, Expi293 culture supernatant, HRP anti-human IgG

B1: 抗体NCV2SG53(Fab) (Fab, V domains shown)
VH: QVQMVESGGGLVRPGGSLRLSCAASGFTFSDYYMSWIRQAPGKGLEWISYISSSGSSMNYADSVKGRFTISRDNAKNSLFLQMNSLRAEDTAVYYCAREFDLTKIIMVPPYWGQGTLVTVSS
VL: AIQLTQSPSSLSASVGDRVTITCRASQGISSYLAWYQQKPGKAPKVLIYAASTLQSGVPSRFSGSGSGTDFTLTISSLQPEDFATYYCQQLKSYPLTFGGGTKVEIT
notes: also called Fab(抗体NCV2SG53)
B1: binds [1].

B2: 抗体NCV2SG53 (antibody, V domains shown)
VH: QVQMVESGGGLVRPGGSLRLSCAASGFTFSDYYMSWIRQAPGKGLEWISYISSSGSSMNYADSVKGRFTISRDNAKNSLFLQMNSLRAEDTAVYYCAREFDLTKIIMVPPYWGQGTLVTVSS
VL: AIQLTQSPSSLSASVGDRVTITCRASQGISSYLAWYQQKPGKAPKVLIYAASTLQSGVPSRFSGSGSGTDFTLTISSLQPEDFATYYCQQLKSYPLTFGGGTKVEIT
B2: binds [2].

B3: 抗体NCV2SG48(Fab) (Fab, V domains shown)
VH: EVQLVESGGGLIQPGGSLRLSCAASGFIVSRNYMNWVRQAPGKGLEWVALIYSGGSTFYADSVKGRFTISRDNSKNTLYLQMNSLRAEDTAVYYCARDLVVYGLDYWGQGTLVTVSS
VL: AIQLTQSPSSLSASVGDRVTITCRASQGISSHLAWYQQKPGKAPKLLIFAASTLQSGVPSRFSGSGSGTDFTLTISSLQPEDFATYYCQHLNSNPPITFGQGTRLEIK
notes: also called Fab(抗体NCV2SG48)
B3: binds [1].
